# In the RNAGym collection of RNA variant scans (doi:10.1073/pnas.2313332121):
# Fewer inactive variants are shown than the library holds.
# B1: TPR 5TU (parent)
# chain: GGAUCUUCUCGAUCUAACAAAAAAGACAAAUCUGCCACAAAGCUUGAGAGCAUCUUCGGAUGCAGAGGCGGCAGCCUUCGGUGGCGCGAUAGCGCCAACGUUCUCAACUAUGACACGCAAAACGCGUGCUCCGUUGAAUGGAGUUUAUCAUG
# Variants of: B1
# Assay: polymerase ribozyme fitness, log enrichment relative to wild type (log ratio); higher = more active; in vitro selection for triplet polymerase activity
# How it was run: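 Input and output libraries were sequenced on Illumina after a single in vitro selection round, run in triplicate on PCR-built, transcribed mutant libraries of each subunit of a heterodimeric triplet polymerase ribozyme. Selection annealed libraries to a biotinylated primer, the partner subunit and triplets, incubated them frozen at −7 °C, then gel-excised extended constructs for streptavidin-bead capture and RT-PCR. Genotypes with ≥10 input reads and ≥1 read per output were kept. Fitness is the logarithm, taken in base 2, of genotype enrichment divided by wild-type enrichment, using inverse-variance-weighted replicate averages.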
row,Variant,polymerase ribozyme fitness (log ratio)
1,GGAUCUUCUCGAUCUAACAAAAAAGACAAAUCUGCCACAAAGCUUGAGAGCAUAUUCGGAUGCAGAGGCGGCAGCCUUCGGUGGCGCGAUAGCGCCAAAGUUCUCAACUAUGACACGCAAAACGCGUGCUCCGUUGAAUGUAGUUUAUCAUG [C54A C99A G141U],-2.47
2,GGAUCUUCUCGAUCUAACAAAAAAGACAAAUCUGCCACAAAGCUUGAGAGCAUAUUCGGAUGCAGAGGCGGCAGCCUUCGGUGGCGCGAUAGCCCCAACGUUCUCAACUAUGACACGCAAAACGCGUGCUCCGUUGACUGGAGUUUAUCAUG [C54A G94C A138C],≤ -4.2
3,GGAUCUUCUCGAUCUAACAAAAAAGACAAAUCUGCCACAAAGCUUGAGAGCAUAUUCGGAUGCAGAGGCGGCAGCCUUCGGUGGCGCCAUAGCGCCAACGUUCUCAACUAUGACACGCAAAACGCGUGCUCCGUUGAAUGGAGUUUAUCAUG [C54A G88C],-3.99
4,GGAUCUUCUCGAUCUAACAAAAAAGACAAAUCUGCCACAAAGCUUGAGAGCAUAUUCGGAUGCAGAGGCGGCAGCCUUCGGUGGCGCGAUAGCGCCAACGUUCUCAACUAUGACACGCAAAACGCGUGCUCCGUUGAAUGGAGUUUAUGAUG [C54A C149G],-3.71
5,GGAUCUUCUCGAUCUAACAAAAAAGACAAAUCUGCCACAAAGCUUGAGAGCAUAUUCGGAUGCAGAGGCGGCAGCCUUCGGUGACGCGAUAGCGCCAACGUUCUCAACUAUGACACGCAAAACGCGUGCUCCGUUGAAUGGCGUUUAUCAUG [C54A G84A A142C],-4.19
6,GGAUCUUCUCGAUCUAACAAAAAAGACAAAUCUGCCACAAAGCUUGAGAGCAUAUUCGGAUGCAGAGGCGGCAGCCUUCGGUGGCGCGAUAACGCCAACGUUCUCAACUAUGACACGCAAAACGCUUGCUCCGUUGAAUGGAGUUUAUCAUG [C54A G92A G126U],-3.3
7,GGAUCUUCUCGAUCUAACAAAAAAGACAAAUCUGCCACAAAGCUUGAGAGCAUAUUCGGAUGCAGAAGCCGGCAGCUUCGGUGGCGGGAUAGCGCCAACGUUCUCAACUAUGACAGGCAAAACGCGUGCUCCGUUGAAUGGAGUUUAUCAUG [C54A G67A G70C C72G A73C G74A C75G C87G C116G],≤ -4.2
8,GGAUCUUCUCGAUCUAACAAAAAAGACAAAUCUGCCACAAAGCUUGAGAGCAUAUUCGGAUGCAGAGGCGGCAGCCUUCGCUGGCGCGAUAGCGCCAACGUUCUCAACUAUGACACGCAAAACGCGUGCUCCGUUGAAUGGAGUUUAUCAUG [C54A G81C],-0.408
9,GGAUCUUCUCGAUCUAACAAAAAAGACAAAUCUGCCACAAAGCUUGAGAGCAUAUUCGGAUGCAGAGGCGGCAGCCUUCGGUGGCGCGAUAGCGCCAACGUUCUCAACUAUGACACGCAAAACGCGUGCUCCGUUGAAUGAAGUUUAUCAUG [C54A G141A],-0.156
10,GGAUCUUCUCGAUCUAACAAAAAAGACAAAUCUGCCACAAAGCUUGAGAGCAUAUUCGGAUGCAGAGGCGGCAGCCUUCGGUGGCGCGAUAGUGCCAACGUUCUCAACUAUGACACGCAAAACGCGUGCUCCGUUGAAUGGAGUUUAUCAUG [C54A C93U],-2.59
11,GGAUCUUCUCGAUCUAACAAAAAAGACAAAUCUGCCACAAAGCUUGAGAGCAUAUUCGGAUGCAGAGGCGGCAGCCUUCAGUGGCGCGAUAGCGCCAACGUUGUCAACUUUGACACGCAUAACGCGUGCUCGGUUGAAUGGAGUUUAUCAUG [C54A G80A C103G A110U A120U C132G],≤ -4.2
12,GGAUCUUCUCGAUCUAACAAAAAAGACAAAUCUGCCACAAAGCUUGAGAGCAUAUUCGGAUGCAGAGGCGGCAGCCUUCGGUGGCGCGAUAGCUCCAACGUUCUCAACUAUGACACGCAAAAGGAGUGCUCCGCUGAAUGGAGUUUAUCAUG [C54A G94U C123G C125A U134C],-3.75
13,GGAUCUUCUCGAUCUAACAAAAAAGACAAAUCUGCCACAAAGCUUGAGAGCAUAUUCGGAUGCAGAGGCGGCAGCCUUCGGUGGCGCGAUAGCGCGAACGUUCUUAACUAUGACACGCAAAACGCGUGCUCCGUUGAAUGGAGCUUAUCAUG [C54A C96G C105U U144C],-2.85
14,GGAUCUUCUCGAUCUAACAAAAAAGACAAAUCUGCCACAAAGCUUGAGAGCAUAUUCGGAUGCAGAGGCGGCAGCCUUCGGUGGCGCGAUAGCGCCAACGUUCUCAACUAUGACACGCAAAACGCGUGCUCCGUUAAAUGGAGUUUAUCAUG [C54A G136A],-0.852
15,GGAUCUUCUCGAUCUAACAAAAAAGACAAAUCUGCCACAAAGCUUGAGAGCAUAUUCAGAUGCAGAGGCGGCAGCCUUCGGUGGCGCGAUAGCACCAUCGUUCUCAACUAUGACACGCAAAACGCGUGCUCCGUUGAAUGGAGUUUAUCAUG [C54A G58A G94A A98U],-0.552
16,GGAUCUUCUCGAUCUAACAAAAAAGACAAAUCUGCCACAAAGCUUGAGAGCAUAUUCGUAUGCAGAGGCGGCAGCCUUCGGUGGCGCGAUGGCGCCAACGUUCUCAACUAUGACACGCAAAACGCGUGCUCCGUAGAAUGGAGUUUAUCAUG [C54A G59U A91G U135A],-3.95
17,GGAUCUUCUCGAUCUAACAAAAAAGACAAAUCUGCCACAAAGCUUGAGAGCAUAUUCGGAUGCAGAGGCGGCAGCCUUCGGUGGCGAGAUAGCGCCAACGUUCUCAACUAUGAAAGGCAAAACGCGUGCUCCGUUGAAUGGAGUUUAUCAUG [C54A C87A C114A C116G],≤ -4.2
18,GGAUCUUCUCGAUCUAACAAAAAAGACAAAUCUGCCACAAAGCUUGAGAGCAUAUUCGGAUGCAGAGGCGGCAGCCUUCGGUGGCGCGAUAGCGCCAACGUUCUCAACUAUGACACGCAAAACGUGUGCUCCGUUGAAUGGAGUUUAUCAUG [C54A C125U],-3.73
19,GGAUCUUCUCGAUCUAACAAAAAAGACAAAUCUGCCACAAAGCUUGAGAGCAUAUUCGGAUGCAGAGGCGGCAGCCUUCGGUGGCGCGAUAGCUCCCACGUUCUCAACUAUGACACGCAAAACGGGUGCUCCGUUGAAUGGAGUUUAUCAUG [C54A G94U A97C C125G],-2.89

row,Variant,polymerase ribozyme fitness (log ratio)
1,GGAUCUUCUCGAUCUAACAAAAAAGACAAAUCUGCCACAAAGCUUGAGAGCAUAUUCGGAUGCAGAGGCGGCAGCCUUCGGUGGCGCGAUAGCGCGAACGUUUUCAACUAUGACAAGCAAAACGCGUGCUCCGUUUAAUGGAGUUUAUCAUG [C54A C96G C103U C116A G136U],-4.12
2,GGAUCUUCUCGAUCUAACAAAAAAGACAAAUCUGCCACAAAGCUUGAGAGCAUAUUCGGAUGCAGAUGCGGCAGCCUUCGGUGGCGCGAUAGCGCCAACGUUCUCAACUAUGACACGCAAAACGCGUGCUCCGUUGAAUGGAGUUUAUCAUG [C54A G67U],-4
3,GGAUCUUCUCGAUCUAACAAAAAAGACAAAUCUGCCACAAAGCUUGAGAGCAUAUUCGGAUGCAGAGGCGGCAGCCUUCGGUGGCGCGAUAGCGCGAACGUUCUCAACUAUGACACGCAAAACGCGUGCUCCGUUGAAUGGAGUUUAUCAUG [C54A C96G],-1.71
4,GGAUCUUCUCGAUCUAACAAAAAAGACAAAUCUGCCACAAAGCUUGAGAGCAUAUUCGGAUGCAGAGGCGGCAGCCUUCGGUGGCGCGAUAGCGCCAACGUUCUUAACUAUGACACGCAAGACGCGUGCUCCGUUGAAUGGAGUUUAUCAUG [C54A C105U A121G],-0.876
5,GGAUCUUCUCGAUCUAACAAAAAAGACAAAUCUGCCACAAAGCUUGAGAGCAUAUUCGGAUGCACAGGCGGCAGCCUUCGGUGGCGCGAUAGGGCCAACGUUCUCAACUAUGACACGCAAAACGCGUGCUCCGUUGAAUGGAGUUUAUCAUG [C54A G65C C93G],≤ -4.2
6,GGAUCUUCUCGAUCUAACAAAAAAGACAAAUCUGCCACAAAGCUUGAGAGCAUAUUCAGAUGCAGAGGCGGCAGCCUUCGGUGGCGCGAUUGCGACAACGUUCUCAACUAUGACACGCAAAACGCGUGCUCCGUUGAAUGGAGUUUAUCAUG [C54A G58A A91U C95A],≤ -4.2
7,GGAUCUUCUCGAUCUAACAAAAAAGACAAAUCUGCCACAAAGCUUGAGAGCAUAUUCGGAUGCAGAGGCGGCAGCCUUCGGUGGCGCGAUAGCGCCAAUGUUCUCAACUAUGACACGCAAAACGCGUGCUCCGUUGAAUGGAGUUUAUCAUG [C54A C99U],-1.85
8,GGAUCUUCUCGAUCUAACAAAAAAGACAAAUCUGCCACAAAGCUUGAGAGCAUAUUCGGAUGCAGAGGCGGCAGCCUUCGGUGGCGCGAUAUCGCCAACGUUCUCAACUAUGACACGCAAAACGCGUGCUCCGUGGAAUGGAGUUUAUCAUG [C54A G92U U135G],-4.08
9,GGAUCUUCUCGAUCUAACAAAAAAGACAAAUCUGCCACAAAGCUUGAGAGCAUAUUCGGAUGCAGAGGCUGCAGCCUUCGGUGGCGCGAUAGCACCAACGUUCUCAACUAUGACACGCAAAACGCGUGCUCCGUUGAAUGGAGUUUAUCAUG [C54A G70U G94A],-4.02
10,GGAUCUUCUCGAUCUAACAAAAAAGACAAAUCUGCCACAAAGCUUGAGAGCAUAUUCGGAUGCAGAGGCGGCAGCCUUCGGUGGCGCGAUAGCGCCAACGUUCUUAACUAUGACACGCAAAACGCGUGCUCCGUUGAAUGGAGUUUAUCAUG [C54A C105U],-0.396
11,GGAUCUUCUCGAUCUAACAAAAAAGACAAAUCUGCCACAAAGCUUGAGAGCAUAUUCGGAUGCAGAGGCGGCAGCCUUCGGUGGCGCGAUAGCUCCAACGUUCUCAACUAUGACACGCAAAACGCGUGCUCCGUUGAAUAGAGUUUAUCAUG [C54A G94U G140A],≤ -4.2
12,GGAUCUUCUCGAUCUAACAAAAAAGACAAAUCUGCCACAAAGCUUGAGAGCAUAUUCGGAUGCAGAGGCGGCAGCCUUCGGUGGCGCGAUAGCGCCAACGUUCUCAACUAUGACAUGCAAAACGCGUGCUCCGUUGAAAGGAGUUUAUCAUG [C54A C116U U139A],-4.11
13,GGAUCUUCUCGAUCUAACAAAAAAGACAAAUCUGCCACAAAGCUUGAGAGCAUAUUCGCAUGCAGAGGCGGCAGCCUUCGGUGACGCGAUAGCGCCAACGUUCUCAACUAUGACACGCAAAACGCGUGCUCCGUUGAAUGGAGUUUAUCAUG [C54A G59C G84A],-0.321
14,GGAUCUUCUCGAUCUAACAAAAAAGACAAAUCUGCCACAAAGCUUGAGAGCAUAUUCGGAUGCAGAGGCGGCAGCCUUCGGUGGUGCGAUAGCGCCAACGUUCUCAACUAUGACACGCAAAACGCGUGCUCCGUUGAAUGGAGUUUAUCAUG [C54A C85U],-1.86
15,GGAUCUUCUCGAUCUAACAAAAAAGACAAAUCUGCCACAAAGCUUGAGAGCAUAUUCCGAUGCAGAGGCGGCAGCCUUCGGUGGCGCGAUAGCGCCAACGUUCUCAACUAUGACACGCAAAACGCGUGCUCCGUUGAAUGGAGUUUAUCAUG [C54A G58C],-1.45
16,GGAUCUUCUCGAUCUAACAAAAAAGACAAAUCUGCCACAAAGCUUGAGAGCAUAUUCGGAUGCAGAGGCGGCAGCCUUCGGUGGCGCGAUAGGGCCAACGUUCUCAACUAUGACACGCAAAACGCGUGCUCCGUGGAAUGGAGUUUAUCAUG [C54A C93G U135G],≤ -4.2
17,GGAUCUUCUCGAUCUAACAAAAAAGACAAAUCUGCCACAAAGCUUGAGAGCAUAUUCGGAUGCAGAGGCGGCAGCCUUCGGUGGCGAGAUAGCGCCAACGUUCUCAACUAUGACACGCAAAACGCGUGCUCCGUUGAAUGGAGUUUAUCAUG [C54A C87A],-4.19
18,GGAUCUUCUCGAUCUAACAAAAAAGACAAAUCUGCCACAAAGCUUGAGAGCAUAUUCGGAUGCAGAGGCGGCAGCCUUCGGUGGCGUGAUAGCGCCAACGUUCUCAACUAUGACACGCAAAACGCGUGCUCCGUUGAAUGGAGUUUAUCAUG [C54A C87U],-3.48
19,GGAUCUUCUCGAUCUAACAAAAAAGACAAAUCUGCCACAAAGCUUGAGAGCAUAUUCGGAUGCAGAGGCGGCAGCCUUCGGUGGCGCGAUAGCGCCAACGUUCUCAACUAUGACACGAAAAACGCGUGCUCCGUUGAAUGGAGUUUAUCAUG [C54A C118A],-1.5
